One block for each binder: values may come before it.
Tests used:
[1] = molecular target: T1, hDcr-CΔRBD, hDcr-C lacking the C-terminal dsRBD (1235-1844), bacterially expressed (human, UniProt Q9UPY3 1235-1844); assay: complex formation; method not detailed
T1 construct: also called hDcr-CARBD
T1 sequence: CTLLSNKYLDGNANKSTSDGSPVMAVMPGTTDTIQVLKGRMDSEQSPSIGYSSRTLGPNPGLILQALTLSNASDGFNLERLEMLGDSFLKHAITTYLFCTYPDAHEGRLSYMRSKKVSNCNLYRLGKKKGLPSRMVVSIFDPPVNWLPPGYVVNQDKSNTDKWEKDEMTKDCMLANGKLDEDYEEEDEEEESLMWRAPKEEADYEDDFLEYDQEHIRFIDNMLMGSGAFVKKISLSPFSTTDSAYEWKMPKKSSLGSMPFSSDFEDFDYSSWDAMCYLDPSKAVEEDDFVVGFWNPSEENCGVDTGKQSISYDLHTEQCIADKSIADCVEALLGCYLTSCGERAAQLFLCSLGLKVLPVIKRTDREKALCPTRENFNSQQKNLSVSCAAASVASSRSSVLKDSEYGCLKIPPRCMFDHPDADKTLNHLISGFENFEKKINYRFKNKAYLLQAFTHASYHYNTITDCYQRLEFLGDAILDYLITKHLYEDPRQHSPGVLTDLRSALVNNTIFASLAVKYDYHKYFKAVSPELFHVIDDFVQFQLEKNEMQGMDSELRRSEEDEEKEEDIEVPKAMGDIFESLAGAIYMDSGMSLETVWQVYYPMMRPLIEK

[2] = molecular target: T2, hDcr-C, C-terminal fragment of human Dicer (1235-1922), bacterially expressed (human, UniProt Q9UPY3 1235-1922); assay: size-exclusion chromatography after incubation without RNA
T2 construct: Expressed in E. coli from the pHMGWA-His6-MBP destination vector via pENTR/TEV/D-TOPO
T2 sequence: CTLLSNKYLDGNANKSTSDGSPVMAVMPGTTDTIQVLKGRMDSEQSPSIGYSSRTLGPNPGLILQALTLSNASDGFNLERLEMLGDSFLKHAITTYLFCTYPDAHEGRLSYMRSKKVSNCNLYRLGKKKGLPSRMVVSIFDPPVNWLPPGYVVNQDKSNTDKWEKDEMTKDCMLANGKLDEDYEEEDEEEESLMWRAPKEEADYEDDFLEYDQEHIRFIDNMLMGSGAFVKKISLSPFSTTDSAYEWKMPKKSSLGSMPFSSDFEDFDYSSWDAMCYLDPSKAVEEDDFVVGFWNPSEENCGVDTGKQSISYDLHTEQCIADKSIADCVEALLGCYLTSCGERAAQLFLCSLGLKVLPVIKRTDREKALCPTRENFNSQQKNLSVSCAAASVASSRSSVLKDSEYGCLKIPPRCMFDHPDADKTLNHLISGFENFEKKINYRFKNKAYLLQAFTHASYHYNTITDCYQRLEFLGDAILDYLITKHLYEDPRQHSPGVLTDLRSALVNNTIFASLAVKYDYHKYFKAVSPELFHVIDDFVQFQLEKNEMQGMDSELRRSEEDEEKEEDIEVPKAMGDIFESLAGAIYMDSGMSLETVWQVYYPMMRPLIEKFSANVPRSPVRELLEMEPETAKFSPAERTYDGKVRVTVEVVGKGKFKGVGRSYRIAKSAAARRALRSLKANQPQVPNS
Procedure: To assess the role of the PAZ domain in determining Dicer cleavage product length, an attempt was made to express the PAZ domain alone in E. coli. Although this was unsuccessful, a construct including both the PAZ domain and the adjacent DUF283 region yielded soluble protein (hereafter the tandem construct named DP, FIG. 2A). […] To test for a direct protein-protein interaction, hDcr-C and DP polypeptides were incubated together in the absence of RNA and then analyzed by size exclusion chromatography.
DP forms a stable complex with hDcr-C. A pre-incubated mixture of the hDcr-C fragment with 3-fold excess of DP was analyzed with a Superdex 200 size-exclusion column (top panel, elution profile).

[3] = molecular target: T3, MBP-ATPase/hel, ATPase/helicase domain of human Dicer (1-604) fused with maltose-binding protein, bacterially … (human, UniProt Q9UPY3 1-604); assay: size exclusion and pull-down (brief figure description)
T3 construct: not shown: the His6 tag and the linker/TEV site lette
T3 sequence: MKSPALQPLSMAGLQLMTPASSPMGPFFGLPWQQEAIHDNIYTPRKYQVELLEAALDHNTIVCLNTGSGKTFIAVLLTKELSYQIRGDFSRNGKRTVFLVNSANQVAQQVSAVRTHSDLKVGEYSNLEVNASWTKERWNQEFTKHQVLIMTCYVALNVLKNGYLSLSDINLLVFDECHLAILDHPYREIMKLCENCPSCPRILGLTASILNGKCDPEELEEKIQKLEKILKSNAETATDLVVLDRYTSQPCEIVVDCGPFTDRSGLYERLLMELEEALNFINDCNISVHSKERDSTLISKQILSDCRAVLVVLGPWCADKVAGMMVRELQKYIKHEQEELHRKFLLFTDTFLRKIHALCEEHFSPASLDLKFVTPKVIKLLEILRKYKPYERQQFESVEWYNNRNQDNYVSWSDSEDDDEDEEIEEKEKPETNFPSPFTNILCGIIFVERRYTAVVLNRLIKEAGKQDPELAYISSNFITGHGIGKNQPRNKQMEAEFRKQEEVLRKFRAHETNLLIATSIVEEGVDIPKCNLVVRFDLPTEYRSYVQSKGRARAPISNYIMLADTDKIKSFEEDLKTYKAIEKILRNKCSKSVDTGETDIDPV
Procedure: Six microgram of both of hTRBP2 and mbp-ATPase/hel-HA proteins were mixed with 15 μl of anti-hemagglutinin (anti-HA) antibody-coupled agarose beads in 1× phosphate-buffered saline (PBS) buffer (Sigma, Saint Louis, Mo.) and incubated in cold room and rocked 60 min. The mixture was pelleted by 30 sec spin at 10,000×g and then washed once with 1×PBS and followed by 5 times with the washing buffer of 20 mM Hepes (pH 7.5), 250 mM NaCl, 1% glycerol and 0.1% Triton X-100. After the last wash, the pellet was boiled for 3 min in 1.2×SDS protein loading buffer. As a control, hTRBP2 alone was also processed in the same way.
ATPase/Helicase domain of hDcr interacts with TRBP. A. Schematic representation of bacterially expressed ATPase/hel domain tagged with MBP. B. The interaction of MBP-ATPase/hel fragment with hTRBP2. A pre-incubated mixture of the MBP-ATPase/hel fragment with 3-fold excess of hTRBP2 was fractionated with a Superdex 200 size-exclusion column (top panel, elution profile). […] The excess hTRBP2 elutes in the second peak. C. MBP-ATPase/hel can pull-down hTRBP2. The MBP-ATPase/hel-domain was purified with a C-terminal hemagglutinin (HA) epitope tag. The two purified proteins (30 pmol of hDcr and 130 pmol of hTRBP2) were incubated on ice with anti-HA antibody agarose beads (Sigma-Aldrich) for 60 min prior to several washes. The bound proteins are eluted via boiling with 1.2×SDS buffer. […]

[4] = molecular target: T4, hDcr-CΔRBD fragment of human Dicer (Homo sapiens, UniProt Q9UPY3 SEQ:1235-1844); assay: filter; out of detectable limit; details: tags: expressed from pHMGWA-His6-MBP vector, E. coli; label: 5'-32P on one strand; siRNA duplex, 19 bp, Dicer product mimic
T4 chain: T1 sequence
Procedure: (§1) Filter binding assays of hDcr and different hDcr fragments were performed in the same way as previously described (7). Briefly, serial dilutions of hDcr protein were incubated in a buffer containing 20 mM Tris-HCl (pH 7.5), 25 mM NaCl, 5 mM EDTA, 1 mM dithiothreitol (DTT), 1% glycerol and ˜0.5-1 nM (1500 CPM) of 5′-end ³²P-labeled duplex RNA substrate (one strand was labeled) at room temperature for 60 min in a 30 μl of total volume. Following incubation, a 25 μl aliquot of each reaction was applied to a dot-blot apparatus equipped with three membranes: Tuffryn, Protran and Nytran (from top to bottom). After drying, the bound (on Protran) or free (on Nytran) RNAs were quantified by a Phosphorimager (GE Healthcare). Percent bound RNA, calculated as the ratio of radioactivity detected on the Protran membrane over the total input radioactivity, was plotted as a function of protein concentration. Kd was determined by global fitting to the equation: kobsd=(kₘₐₓ[…]) (Kd+[Dicer])−1, where kobsd is the observed rate constant at a given protein concentration, kₘₐₓ is the maximal rate constant with saturating protein, and Kd is the protein concentration that provides half the maximal rate. Curve fitting was conducted with KaleidaGraph (Synergy Software, Reading, Pa.).
To establish the relationship between cleavage activity and substrate binding, nitrocellulose filter-binding assays were performed with three kinds of RNAs under non-cleavage conditions: substrate dsRNA ([…]), Dicer product-mimic dsRNA (19-bp) and a pre-miRNA (pre-hlet-7a-1).

[5] = molecular target: T5, MBP-ATPase/helicase fragment of human Dicer (Homo sapiens, UniProt Q9UPY3 SEQ:1-604); assay: filter; out of detectable limit; 5 mM EDTA; details: tags: His6-MBP N-terminal fusion (pHMGWA), E. coli; label: 5'-32P on one strand; siRNA duplex, 19 bp, Dicer product mimic
T5 chain: T3 sequence
Procedure: as §1, with “Pa.). […]” for “Pa.).”

[6] = molecular target: T6, hDcr-C (RNase IIIa/IIIb-dsRBD) fragment of human Dicer (Homo sapiens, UniProt Q9UPY3 SEQ:1235-1922); assay: filter; out of detectable limit; almost no binding; details: tags: expressed from pHMGWA-His6-MBP vector, E. coli; label: 5'-32P on one strand; siRNA duplex, 19 bp, Dicer product mimic
T6 chain: T2 sequence
Procedure: as §1, with “Pa.). […]” for “Pa.).”

binding result [1]: binds | binding result [2]: binds
B1: DP, tandem DUF283-PAZ domains of human Dicer (605-1068), bacterially expressed (other)
chain: MDDDDVFPPYVLRPDDGGPRVTINTAIGHINRYCARLPSDPFTHLAPKCRTRELPDGTFYSTLYLPINSPLRASIVGPPMSCVRLAERVVALICCEKLHKIGELDDHLMPVGKETVKYEEELDLHDEEETSVPGRPGSTKRRQCYPKAIPECLRDSYPRPDQPCYLYVIGMVLTTPLPDELNFRRRKLYPPEDTTRCFGILTAKPIPQIPHFPVYTRSGEVTISIELKKSGFMLSLQMLELITRLHQYIFSHILRLEKPALEFKPTDADSAYCVLPLNVVNDSSTLDIDFKFMEDIEKSEARIGIPSTKYTKETPFVFKLEDYQDAVIIPRYRNFDQPHRFYVADVYTDLTPLSKFPSPEYETFAEYYKTKYNLDLTNLNQPLLDVDHTSSRLNLLTPRHLNQKGKALPLSSAEKRKAKWESLQNKQILVPELCAIHPIPASLWRKAVCLPSILYRLHCLLTAE
notes: Expressed in E. coli from the pHMGWA-His6-MBP vector; also called middle domains of hDcr

binding result [3]: binds
B2: human TAR-RNA binding protein (hTRBP2), recombinant (other, UniProt Q15633 1-366, looked up)
chain: MSEEEQGSGTTTGCGLPSIEQMLAANPGKTPISLLQEYGTRIGKTPVYDLLKAEGQAHQPNFTFRVTVGDTSCTGQGPSKKAAKHKAAEVALKHLKGGSMLEPALEDSSSFSPLDSSLPEDIPVFTAAAAATPVPSVVLTRSPPMELQPPVSPQQSECNPVGALQELVVQKGWRLPEYTVTQESGPAHRKEFTMTCRVERFIEIGSGTSKKLAKRNAAAKMLLRVHTVPLDARDGNEVEPDDDHFSIGVGSRLDGLRNRGPGCTWDSLRNSVGEKILSLRSCSLGSLGALGPACCRVLSELSEEQAFHVSYLDIEELSLSGLCQCLVELSTQPATVCHGSATTREAARGEAARRALQYLKIMAGSK
notes: Purified recombinant protein

B3: 21ab (dsRNA)
RNA 1: UAUACAAUGUGCUAGCUUUCU
RNA 2: AAAGCUAGCACAUUGUAUAGU
binding result [4]: no binding | binding result [5]: no binding | binding result [6]: no binding
